1 substance from PMC9483092 can be followed below.

The target in the assay is DYK-tagged transmembrane serine protease 13 (TMPRSS13) stably expressed in HEK cells (HEK-T) (human) (UniProt Q9BYE2). The assay is described as follows: co-IP; competition: 20 µg recombinant spike S2 fragment added to HEK-T cells 2 h before IL4I1; read-out IL4I1 co-precipitated with TMPRSS13-DYK.
Sequence of UniProt Q9BYE2 (Q9BYE2 other isoform, or with tags, fused parts or gaps): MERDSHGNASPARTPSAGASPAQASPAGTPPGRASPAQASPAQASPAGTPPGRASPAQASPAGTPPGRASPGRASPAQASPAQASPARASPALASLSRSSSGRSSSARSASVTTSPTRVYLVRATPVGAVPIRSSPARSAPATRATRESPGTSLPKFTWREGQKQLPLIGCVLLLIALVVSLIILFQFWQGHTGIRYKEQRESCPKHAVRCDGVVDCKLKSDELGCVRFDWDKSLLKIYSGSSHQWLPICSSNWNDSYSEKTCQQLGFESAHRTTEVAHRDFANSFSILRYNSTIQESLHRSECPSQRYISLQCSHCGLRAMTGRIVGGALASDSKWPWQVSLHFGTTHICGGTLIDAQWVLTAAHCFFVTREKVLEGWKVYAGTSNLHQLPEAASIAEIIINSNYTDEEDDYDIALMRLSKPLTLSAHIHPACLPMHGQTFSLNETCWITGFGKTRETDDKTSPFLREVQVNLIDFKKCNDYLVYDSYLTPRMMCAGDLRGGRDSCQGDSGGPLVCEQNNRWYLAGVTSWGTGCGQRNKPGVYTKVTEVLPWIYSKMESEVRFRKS

As to “recombinant S2 fragment of the SARS-CoV-2 spike protein (domain or fragment)”, the percent decrease of IL4I1 binding to TMPRSS13 with 20 µg S2 per 80 µg IL4I1 worked out at 50%.
